Data taken from IntAct's records for PubMed 20935625.

B1: Dynamin-1 (Homo sapiens), Q05193-5 (parent)
chain: MGNRGMEDLIPLVNRLQDAFSAIGQNADLDLPQIAVVGGQSAGKSSVLENFVGRDFLPRGSGIVTRRPLVLQLVNATTEYAEFLHCKGKKFTDFEEVRLEIEAETDRVTGTNKGISPVPINLRVYSPHVLNLTLVDLPGMTKVPVGDQPPDIEFQIRDMLMQFVTKENCLILAVSPANSDLANSDALKVAKEVDPQGQRTIGVITKLDLMDEGTDARDVLENKLLPLRRGYIGVVNRSQKDIDGKKDITAALAAERKFFLSHPSYRHLADRMGTPYLQKVLNQQLTNHIRDTLPGLRNKLQSQLLSIEKEVEEYKNFRPDDPARKTKALLQMVQQFAVDFEKRIEGSGDQIDTYELSGGARINRIFHERFPFELVKMEFDEKELRREISYAIKNIHGIRTGLFTPDLAFEATVKKQVQKLKEPSIKCVDMVVSELTATIRKCSEKLQQYPRLREEMERIVTTHIREREGRTKEQVMLLIDIELAYMNTNHEDFIGFANAQQRSNQMNKKKTSGNQDEILVIRKGWLTINNIGIMKGGSKEYWFVLTAENLSWYKDDEEKEKKYMLSVDNLKLRDVEKGFMSSKHIFALFNTEQRNVYKDYRQLELACETQEEVDSWKASFLRAGVYPERVGDKEKASETEENGSDSFMHSMDPQLERQVETIRNLVDSYMAIVNKTVRDLMPKTIMHLMINNTKEFIFSELLANLYSCGDQNTLMEESAEQAQRRDEMLRMYHALKEALSIIGDINTTTVSTPMPPPVDDSWLQVQSVPAGRRSPTSSPTPQRRAPAVPPARPGSRGPAPGPPPAGSALGGAPPVPSRPGASPDPFGPPPQVPSRPNRAPPGVPRITISDP

Variants of: B1
Conditions: with acts_rabit ACTA1, P68135

Variant	effect of a mutation on the interaction
K419E	decreasing interaction
K415E	decreasing interaction

The remaining lines, values ahead:

effect of a mutation on the interaction	Variant
decreasing interaction	K414E
decreasing interaction	K426E
decreasing interaction	K421E

Variants of: B1
Conditions: with acts_rabit ACTA1, P68135
Remark: another data set of the same source

Variant	effect of a mutation on the interaction
K415A	decreasing interaction
K414A	decreasing interaction
K421A	decreasing interaction

More lines, now with the values ahead:

effect of a mutation on the interaction	Variant
decreasing interaction	K419A
decreasing interaction	K426A

Variants of: B1
Conditions: with acts_rabit ACTA1, P68135
Remark: another data set of the same source

effect of a mutation on the interaction	Variant
increasing interaction	E434K
